Entries after “also recorded” stand apart in the source; their conditions may differ. Non-standard residues stand in square brackets, D forms with d. No end group written: not given here. *: point of attachment. EDDnp = O=[N+]([O-])c1ccc(NCCN*)c([N+](=O)[O-])c1; 2Abz = Nc1ccccc1C(=O)O
Target: T1, Recombinant KLK2 (Homo sapiens, UniProt P20151)
T1 construct: made in house; host or cells: baculovirus-insect cell line system
Assay: Hydrolysis of FRET peptides by recombinant KLK2 (kinetic parameters)
Assay type: biochemical
Conditions: for hydrolysis by KLK2 (in words): FRET peptides derived from the IL-10R2 ectodomain
Text: Obtained from a baculovirus-insect cell line system, purified, and activated as previously reported,[14] MUGB (4-methylumbelliferyl p-guanidino benzoate hydrochloride) was used for the spectrofluorimetric determination of molar concentrations of active KLK2.[15] KLK3 was obtained and assayed as previously reported.[3]
All of the FRET peptides were obtained by solid-phase peptide synthesis. The purity of FRET peptides to 95% or higher was obtained by semipreparative HPLC on a C18 reversed-phase column and used as protease substrates, as previously reported.[5] Details about the purification and quality of the FRET peptides are provided in the Supporting Information. The enzymatic kinetic measurements were all performed with FRET peptides as previously described.[5]
Five series of FRET peptides derived from Abz-KLRSSK-Q-EDDnp were assayed with KLK2 in 20 mM Tris–HCl, pH 8.0, and 1 M sodium citrate. […] The specificity of subsites S3, S2, S1’, and S2’ was explored by the FRET peptide series Abz-XLRSSKQ-EDDnp (for S3), Abz-KXRSSKQ-EDDnp (for S2), Abz-KLRXSKQ-EDDnp (for S1’), and Abz-KLRSXKQ-EDDnp (for S2’). All of them were hydrolyzed only at R–S or R–X peptide bonds, and the kinetic parameters for their hydrolysis by KLK2 are listed in Table 1.

[1] = pH 8.0, 20 mM Tris–HCl, 1 M sodium citrate, 37 °C, KLK2 1.6 nM, three enzymatic reactions, standard errors 5% or less
[2] = Table 3, FRET peptides derived from the IL-10R2 ectodomain

T1 sequence (P20151 25-261): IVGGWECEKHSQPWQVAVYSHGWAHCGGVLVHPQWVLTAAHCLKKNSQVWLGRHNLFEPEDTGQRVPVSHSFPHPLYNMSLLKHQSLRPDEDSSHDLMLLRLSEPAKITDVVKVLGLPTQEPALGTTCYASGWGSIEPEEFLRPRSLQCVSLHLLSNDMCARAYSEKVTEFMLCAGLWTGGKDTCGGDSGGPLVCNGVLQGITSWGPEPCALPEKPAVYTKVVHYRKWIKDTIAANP

Substance | kcat/Km (20 mM Tris–HCl, pH 8.0, 1 M sodium citrate) [mM^–1 s^–1] | Km [1] [µM] | kcat [1] [s^–1] | kcat/Km [1] [s^–1 mM^–1] | hydrolysis by KLK2 (in words) | Km [2] [µM] | kcat [2] [s^–1] | kcat/Km [2] [mM s–1]
Abz-KLRSSKQ-EDDnp [parent FRET peptide, cleaved at the R–S peptide bond by KLK2] | 1738 | 6.5 | 11.3 | 1738 | – | – | – | –
Abz-KLRSXKQ-EDDnp, X = A: FRET peptide, S2’ series, X = A ([2Abz]KLRSAKQ-EDDnp) | – | 3.8 | 12.2 | 3211 | – | – | – | –
Abz-KLRSXKQ-EDDnp, X = E: FRET peptide, S2’ series, X = E ([2Abz]KLRSEKQ-EDDnp) | – | 8 | 7.1 | 888 | – | – | – | –
Abz-KLRSXKQ-EDDnp, X = F: FRET peptide, S2’ series, X = F ([2Abz]KLRSFKQ-EDDnp) | – | 2.4 | 12.4 | 5167 | – | – | – | –
Abz-KLRSXKQ-EDDnp, X = G: FRET peptide, S2’ series, X = G ([2Abz]KLRSGKQ-EDDnp) | – | 4.5 | 3.5 | 778 | – | – | – | –
Abz-KLRSXKQ-EDDnp, X = H: FRET peptide, S2’ series, X = H (N-terminal Abz, C-terminal EDDnp; X = H) | – | 5.9 | 4.4 | – | – | – | – | –
Abz-KLRSXKQ-EDDnp, X = I: FRET peptide, S2’ series, X = I ([2Abz]KLRSIKQ-EDDnp) | – | 2.8 | 4.4 | 1571 | – | – | – | –
Abz-KLRSXKQ-EDDnp, X = L: FRET peptide, S2’ series, X = L ([2Abz]KLRSLKQ-EDDnp) | – | 2.8 | 8.5 | 3036 | – | – | – | –
Abz-KLRSXKQ-EDDnp, X = N: FRET peptide, S2’ series, X = N ([2Abz]KLRSNKQ-EDDnp) | – | 8.8 | 4.9 | 557 | – | – | – | –
Abz-KLRSXKQ-EDDnp, X = Q: FRET peptide, S2’ series, X = Q ([2Abz]KLRSQKQ-EDDnp) | – | 5.2 | 6.5 | 1250 | – | – | – | –
Abz-KLRSXKQ-EDDnp, X = R: FRET peptide, S2’ series, X = R ([2Abz]KLRSRKQ-EDDnp) | – | 3.6 | 3.2 | 888 | – | – | – | –
Abz-KLRSXKQ-EDDnp, X = V: FRET peptide, S2’ series, X = V ([2Abz]KLRSVKQ-EDDnp) | – | 4.2 | 15.3 | 3643 | – | – | – | –
Abz-KLRXSKQ-EDDnp, X = E: FRET peptide, S1’ series, X = E ([2Abz]KLRESKQ-EDDnp) | – | 6.6 | 10.3 | 1561 | – | – | – | –
Abz-KLRXSKQ-EDDnp, X = F: FRET peptide, S1’ series, X = F ([2Abz]KLRFSKQ-EDDnp) | – | 1.2 | 3.5 | 2917 | – | – | – | –
Abz-KLRXSKQ-EDDnp, X = G: FRET peptide, S1’ series, X = G ([2Abz]KLRGSKQ-EDDnp) | – | 7.3 | 19.9 | – | – | – | – | –
Abz-KLRXSKQ-EDDnp, X = H: FRET peptide, S1’ series, X = H (N-terminal Abz, C-terminal EDDnp; X = H) | – | 4.3 | 8.0 | 1860 | – | – | – | –
Abz-KLRXSKQ-EDDnp, X = I: FRET peptide, S1’ series, X = I ([2Abz]KLRISKQ-EDDnp) | – | 1.8 | 7.2 | 4000 | – | – | – | –
Abz-KLRXSKQ-EDDnp, X = L: FRET peptide, S1’ series, X = L ([2Abz]KLRLSKQ-EDDnp) | – | 3.3 | 6.7 | 2030 | – | – | – | –
Abz-KLRXSKQ-EDDnp, X = N: FRET peptide, S1’ series, X = N ([2Abz]KLRNSKQ-EDDnp) | – | 8.6 | 14.8 | 1733 | – | – | – | –
Abz-KLRXSKQ-EDDnp, X = Q: FRET peptide, S1’ series, X = Q ([2Abz]KLRQSKQ-EDDnp) | – | 6.1 | 8.5 | 1393 | – | – | – | –
Abz-KLRXSKQ-EDDnp, X = R: FRET peptide, S1’ series, X = R ([2Abz]KLRRSKQ-EDDnp) | – | 5.4 | 8.2 | 1519 | – | – | – | –

Substance | kcat/Km (20 mM Tris–HCl, pH 8.0, 1 M sodium citrate) [mM^–1 s^–1] | Km [1] [µM] | kcat [1] [s^–1] | kcat/Km [1] [s^–1 mM^–1] | hydrolysis by KLK2 (in words) | Km [2] [µM] | kcat [2] [s^–1] | kcat/Km [2] [mM s–1]
Abz-KLRXSKQ-EDDnp, X = V: FRET peptide, S1’ series, X = V ([2Abz]KLRVSKQ-EDDnp) | – | 2.2 | 8.1 | 3682 | – | – | – | –
Abz-KXRSSKQ-EDDnp, X = A: FRET peptide, S2 series, X = A [Abz-KXRSSKQ-EDDnp, X = A] ([2Abz]KARSSKQ-EDDnp) | – | 4.8 | 2.2 | 458 | – | – | – | –
Abz-KXRSSKQ-EDDnp, X = E: FRET peptide, S2 series, X = E [Abz-KXRSSKQ-EDDnp, X = E] ([2Abz]KERSSKQ-EDDnp) | – | 9.1 | 1.0 | 110 | – | – | – | –
Abz-KXRSSKQ-EDDnp, X = F: FRET peptide, S2 series, X = F ([2Abz]KFRSSKQ-EDDnp) | – | 1.6 | 4.1 | 2563 | – | – | – | –
Abz-KXRSSKQ-EDDnp, X = G: FRET peptide, S2 series, X = G ([2Abz]KGRSSKQ-EDDnp) | – | 12.4 | 1.0 | 81 | – | – | – | –
Abz-KXRSSKQ-EDDnp, X = H: FRET peptide, S2 series, X = H (N-terminal Abz, C-terminal EDDnp; X = H) | – | 9.6 | 4.7 | 490 | – | – | – | –
Abz-KXRSSKQ-EDDnp, X = I: FRET peptide, S2 series, X = I [Abz-KXRSSKQ-EDDnp, X = I] (Abz-KIRSSKQ-EDDnp) | – | 4.5 | 4.7 | 1044 | – | – | – | –
Abz-KXRSSKQ-EDDnp, X = K: FRET peptide, S2 series, X = K (Abz-KKRSSKQ-EDDnp) | – | 7.2 | 3.0 | 417 | – | – | – | –
Abz-KXRSSKQ-EDDnp, X = N: FRET peptide, S2 series, X = N (Abz-KNRSSKQ-EDDnp) | – | 10.1 | 3.3 | 327 | – | – | – | –
Abz-KXRSSKQ-EDDnp, X = Q: FRET peptide, S2 series, X = Q [Abz-KXRSSKQ-EDDnp, X = Q] (Abz-KQRSSKQ-EDDnp) | – | 8.3 | 6.4 | 771 | – | – | – | –
Abz-KXRSSKQ-EDDnp, X = R: FRET peptide, S2 series, X = R (Abz-KRRSSKQ-EDDnp) | – | 5.2 | 8.7 | 1673 | – | – | – | –
Abz-KXRSSKQ-EDDnp, X = S: FRET peptide, S2 series, X = S (Abz-KSRSSKQ-EDDnp) | – | 9.1 | 1.1 | 121 | – | – | – | –
Abz-KXRSSKQ-EDDnp, X = T: FRET peptide, S2 series, X = T (Abz-KTRSSKQ-EDDnp) | – | 10.5 | 3.6 | 343 | – | – | – | –
Abz-KXRSSKQ-EDDnp, X = V: FRET peptide, S2 series, X = V (Abz-KVRSSKQ-EDDnp) | – | 8.5 | 9.9 | 1165 | – | – | – | –
Abz-KXRSSKQ-EDDnp, X = Y: FRET peptide, S2 series, X = Y [Abz-KXRSSKQ-EDDnp, X = Y] (Abz-KYRSSKQ-EDDnp) | – | 5.6 | 12.8 | 2304 | – | – | – | –
Abz-LPDRNK-Q-EDDnp [FRET peptide derived from the IL-10R2 ectodomain, ^195LPDRN^200K] | – | – | – | – | resistant to KLK2; also recorded: no hydrolysis | – | – | –
Abz-LSKYGD-Q-EDDnp [FRET peptide derived from the IL-10R2 ectodomain, ^79LSKYG^84D] | – | – | – | – | resistant to hydrolysis; also recorded: no hydrolysis | – | – | –
Abz-SYRIFQ-Q-EDDnp [FRET peptide derived from the IL-10R2 ectodomain, ^58SYRI^62F] | – | – | – | – | – | 0.95 | 7.3 | 7684
Abz-TLRVRAE-Q-EDDnp [FRET peptide derived from the IL-10R2 ectodomain, ^86TLRVRA^92E] | – | – | – | – | – | 1.34 | 2.47 | 1843
Abz-XLRSSKQ-EDDnp, X = E: FRET peptide, S3 series, X = E (Abz-ELRSSKQ-EDDnp) | – | 7.6 | 7.4 | 974 | – | – | – | –
Abz-XLRSSKQ-EDDnp, X = F: FRET peptide, S3 series, X = F [Abz-XLRSSKQ-EDDnp, X = F] (Abz-FLRSSKQ-EDDnp) | – | 6.6 | 9.6 | 1455 | – | – | – | –
